Results from FireProtDB (doi:10.1016/0022-2836(91)90725-l).

Conditions: Bacillus amyloliquefaciens; pH 6.3; 25 °C; Urea; Fluorescence; MES 1.00 M; NaCl 613 mM; reversible: yes; whole UniProt chain shown

B1: Ribonuclease wild type, P00648 (protein)
chain: MMKMEGIALKKRLSWISVCLLVLVSAAGMLFSTAAKTETSSHKAHTEAQVINTFDGVADYLQTYHKLPDNYITKSEAQALGWVASKGNLADVAPGKSIGGDIFSNREGKLPGKSGRTWREADINYTSGFRNSDRILYSSDWLIYKTTDHYQTFTKIR
  denaturant m value: 2.22 kcal/mol/M
  denaturant midpoint (higher = more stable): 4.57 M
  unfolding free energy: 10.2 kcal/mol
